Data: IntAct's records for PubMed 16004875

B1: Vesicle-associated membrane protein-associated protein A (Rattus norvegicus (Rat)), Q9Z270 (parent)
chain: MASASGAMAKHEQILVLDPPSDLKFKGPFTDVVTTNLKLQNPSDRKVCFKVKTTAPRRYCVRPNSGVIDPGSIVTVSVMLQPFDYDPNEKSKHKFMVQTIFAPPNISDMEAVWKEAKPDELMDSKLRCVFEMPNENDKLNDMEPSKAVPLNASKQDGPLPKPHSVSLNDTETRKLMEECKRLQGEMMKLSEENRHLRDEGLRLRKVAHSDKPGSTSAVSFRDNVTSPLPSLLVVIAAIFIGFFLGKFIL
partner: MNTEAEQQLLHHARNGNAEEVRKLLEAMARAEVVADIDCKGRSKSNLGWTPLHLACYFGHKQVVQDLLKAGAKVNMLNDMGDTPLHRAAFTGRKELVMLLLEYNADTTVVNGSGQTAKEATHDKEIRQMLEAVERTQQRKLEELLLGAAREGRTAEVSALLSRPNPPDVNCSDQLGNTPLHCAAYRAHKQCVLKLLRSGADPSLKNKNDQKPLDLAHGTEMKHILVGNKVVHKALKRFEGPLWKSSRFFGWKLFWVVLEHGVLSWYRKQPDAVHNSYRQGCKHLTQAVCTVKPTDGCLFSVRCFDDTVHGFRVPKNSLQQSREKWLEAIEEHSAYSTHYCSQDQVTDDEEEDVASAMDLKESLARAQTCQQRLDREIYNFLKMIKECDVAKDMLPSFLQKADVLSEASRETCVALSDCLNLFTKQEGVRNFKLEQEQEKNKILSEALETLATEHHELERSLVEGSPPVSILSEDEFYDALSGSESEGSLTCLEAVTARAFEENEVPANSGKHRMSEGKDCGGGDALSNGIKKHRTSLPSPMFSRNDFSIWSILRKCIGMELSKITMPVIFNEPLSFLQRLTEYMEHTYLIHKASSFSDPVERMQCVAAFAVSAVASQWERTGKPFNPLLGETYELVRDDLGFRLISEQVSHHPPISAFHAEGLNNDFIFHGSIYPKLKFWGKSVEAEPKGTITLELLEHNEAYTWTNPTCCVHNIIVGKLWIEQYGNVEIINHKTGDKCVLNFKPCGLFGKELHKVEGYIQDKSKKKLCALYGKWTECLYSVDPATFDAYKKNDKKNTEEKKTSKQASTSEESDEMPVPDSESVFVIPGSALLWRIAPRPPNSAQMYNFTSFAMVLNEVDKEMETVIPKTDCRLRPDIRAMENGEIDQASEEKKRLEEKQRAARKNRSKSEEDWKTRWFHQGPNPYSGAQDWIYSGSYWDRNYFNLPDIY
B2: Vesicle-associated membrane protein-associated protein SCS2 (Saccharomyces cerevisiae), P40075 (parent)
chain: MSAVEISPDVLVYKSPLTEQSTEYASISNNSDQTIAFKVKTTAPKFYCVRPNAAVVAPGETIQVQVIFLGLTEEPAADFKCRDKFLVITLPSPYDLNGKAVADVWSDLEAEFKQQAISKKIKVKYLISPDVHPAQNQNIQENKETVEPVVQDSEPKEVPAVVNEKEVPAEPETQPPVQVKKEEVPPVVQKTVPHENEKQTSNSTPAPQNQIKEAATVPAENESSSMGIFILVALLILVLGWFYR
partner: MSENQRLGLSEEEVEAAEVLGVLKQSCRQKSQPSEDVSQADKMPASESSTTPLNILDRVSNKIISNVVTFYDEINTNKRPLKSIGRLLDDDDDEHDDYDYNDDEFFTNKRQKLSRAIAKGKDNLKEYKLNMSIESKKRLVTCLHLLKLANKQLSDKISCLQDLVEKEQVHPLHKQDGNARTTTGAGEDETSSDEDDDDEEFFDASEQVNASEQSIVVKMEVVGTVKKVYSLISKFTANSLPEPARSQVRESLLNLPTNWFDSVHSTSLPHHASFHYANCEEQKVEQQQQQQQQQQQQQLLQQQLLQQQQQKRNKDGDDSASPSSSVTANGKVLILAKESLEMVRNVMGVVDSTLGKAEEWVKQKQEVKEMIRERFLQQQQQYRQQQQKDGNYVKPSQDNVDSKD

Variants of: B1
Conditions: with osbl1_rat Osbpl1a

| Variant | effect of a mutation on the interaction |
| --- | --- |
| MASASGAMAKHEQILVLDPPSDLKFKGPFTDVVTTNLKLQNPSDRKVCFKVKTTAPRRYCVRPNSGVIDPGSIVTVSVMLQPFDYDPNEKSKHDFDVQTIFAPPNISDMEAVWKEAKPDELMDSKLRCVFEMPNENDKLNDMEPSKAVPLNASKQDGPLPKPHSVSLNDTETRKLMEECKRLQGEMMKLSEENRHLRDEGLRLRKVAHSDKPGSTSAVSFRDNVTSPLPSLLVVIAAIFIGFFLGKFIL [K94D;M96D] | disrupting interaction |

Variants of: B2
Conditions: with opi1_yeast OPI1, P21957

| Variant | effect of a mutation on the interaction |
| --- | --- |
| MSAVEISPDVLVYKSPLTEQSTEYASISNNSDQTIAFKVKTTAPKFYCVRPNAAVVAPGETIQVQVIFLGLTEEPAADFKCRDDFDVITLPSPYDLNGKAVADVWSDLEAEFKQQAISKKIKVKYLISPDVHPAQNQNIQENKETVEPVVQDSEPKEVPAVVNEKEVPAEPETQPPVQVKKEEVPPVVQKTVPHENEKQTSNSTPAPQNQIKEAATVPAENESSSMGIFILVALLILVLGWFYR [K84D;L86D] | disrupting interaction |
